For one substance, percentages of OX40+FoxP3+CD4+ cells in injected tumors of WT mice (FACS) results are on record in patent publication US20250179524A1.

The target of the assay is OX40 (receptor of OX40L) on tumor-infiltrating T cells of C57BL/6J mice (mouse) (UniProt P47741). Briefly: cell-based or functional assay.
Chain of UniProt P47741 (P47741 20-272): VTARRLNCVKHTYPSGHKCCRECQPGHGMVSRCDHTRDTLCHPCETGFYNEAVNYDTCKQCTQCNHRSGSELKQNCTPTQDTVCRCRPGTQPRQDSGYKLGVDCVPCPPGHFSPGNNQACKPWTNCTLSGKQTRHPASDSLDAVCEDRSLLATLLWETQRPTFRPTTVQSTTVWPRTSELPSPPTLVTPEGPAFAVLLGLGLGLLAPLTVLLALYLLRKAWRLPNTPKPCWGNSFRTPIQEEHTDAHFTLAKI

In turn, “murine OX40L (muOX40L) polypeptide (ligand)” displayed a percentages of OX40+FoxP3+CD4+ cells in injected tumors of WT mice (FACS) of 19%.
